Experimental findings from EP4039818A1 are described below.

For the assay, the target named is a-sACE2 (enzymatically active soluble ACE2) as measured in Example 7b (UniProt Q9BYF1). The assay is described as follows: cell-based or functional assay.

“goat polyclonal anti-human ACE2 antibody (R&D Systems, #AF933)” yielded an enzymatic activity measurement performed according to the enzymatic activity assay of example 3a above 5 µg/mL.
